US5861377, “Antistasin type serine protease inhibitors” (Novartis AG, dated 1999)
No end group written: not given here.

Assays:
Assay in all cases: enzyme inhibition at equilibrium, steady state velocities fitted to the equation for tight binding inhibitors
[1] = molecular target: human plasmin (human, UniProt P00747)
[2] = molecular target: porcine tissue kallikrein (porcine, UniProt P00752)
[3] = molecular target: bovine trypsin (bovine, UniProt P00760)
[4] = molecular target: bovine chymotrypsin (bovine, UniProt P00766)
[5] = molecular target: human cathepsin G (human, UniProt P08311)

B1: hirustasin (Hirudo antistasin) (other)
chain: TQGNTCGGETCSAAQVCLKGKCVCNEVHCRIRCKYGLKKDENGCEYPCSCAKASQ
modifications: not fully specified; cysteine pairing not given here
In the case of B1, the Ki [1] is reported as 138 nM, the Ki [2] is reported as 13 nM and the Ki [3] is reported as 7 nM. The Ki [4] was 6.4 nM and the Ki [5] was 2.9 nM.
